PMC5750235, “Trapping IgE in a closed conformation by mimicking CD23 binding prevents and disrupts FcεRI interaction” (Nature Communications, 2018)

What was measured:
[1] = target: T1, IgE Fc Cε3–4 fragment (human, UniProt P01854, (N-acetylglucosamine)2(mannose)5 hepta-saccharide on N394); test: crystal structure; 026 sdab:IgE Fc complex, 5 mg/ml in 20 mM HEPES, 50 mM NaCl, pH 7.2; sitting drops, 0.1 M imidazole pH 7.0, 11-12% PEG 20,000; 3.4 Å; conditions: both partners purified
T1 construct: human IgE heavy chain constant region, domains Cε3 and Cε4, as found in the crystals; Not a designed construct: the crystals held this fragment and not the Cε2–4 that was expected; also called IgE Cε3–4; source: HEK-293; a small fraction in the purified IgE Fc Cε2–4 preparation, crystallized with 026 sdab

[2] = target: the molecule itself; test: as above

stoichiometry N [1]	Binder	binding result [2]
2 sdab per IgE Fc	026 sdab (VHH, llama-derived, humanized single-domain antibody; Synthetic gene; also called sdab 026; anti-IgE sdab 026) VHH: EVQLLESGGGLVQPGGSLRLSCAASGFTFGNYDMAWVRQAPGKRPEWVSSIDTGGDITHYADSVKGRFTISRDNAKNTLYLQMNSLRPEDTAVYWCATDEEYALGPNEFDYYGQGTLVTVSS	
	IgE Fc Cε3–4 fragment (domain or fragment, human, (N-acetylglucosamine)2(mannose)5 hepta-saccharide on N394, human IgE heavy chain constant region, domains Cε3 and Cε4, as found in the crystals; Not a designed construct: the crystals held this fragment and not the Cε2–4 that was expected; also called IgE Cε3–4; source: HEK-293; a small fraction in the purified IgE Fc Cε2–4 preparation, crystallized with 026 sdab) RGVSAYLSRPSPFDLFIRKSPTITCLVVDLAPSKGTVNLTWSRASGKPVNHSTRKEEKQRNGTLTVTSTLPVGTRDWIEGETYQCRVTHPHLPRALMRSTTKTSGPRAAPEVYAFATPEWPGSRDKRTLACLIQNFMPEDISVQWLHNEVQLPDARHSTTQPRKTKGSGFFVFSRLEVTRAEWEQKDEFICRAVHEAASPSQTVQRAVSVNP	binds
